Experimental data as given in US20210253718A1, “FRIZZLED5 PROTEIN-BINDING AGENTS” (Modmab Therapeutics Corporation, priority 2016, published 2021).

Assays:
[1] = tested on: ASPC-1 cells; assay: Effect of anti-FZD5 Fabs on proliferation of pancreatic cancer cell lines (percent growth inhibition); type: cell-based, human; conditions: Fab 10 μg/ml
Method: (§1) The effect of presently disclosed anti-FZD5 Fabs on proliferation of RNF43 loss-of-function mutant pancreatic cancer cell lines HPAFII, PATU8988S and ASPC-1; and on pancreatic cancer cell line RWP1, was tested at […] and 10 μg/ml.

[2] = tested on: HPAFII cells; assay: as above; type: cell-based, human; conditions: for percent growth inhibition, HPAFII 2 μg/ml: Fab 2 μg/ml; for percent growth inhibition, HPAFII 10 μg/ml: Fab 10 μg/ml
Method: as §1

[3] = tested on: RWP1 cells; assay: as above; type: cell-based, human; conditions: Fab 10 μg/ml
Method: as §1

[4] = tested on: PATU8988S cells; assay: as above; type: cell-based, human; conditions: Fab 10 μg/ml
Method: as §1

[5] = tested on: CHO cells not expressing Frizzled CRD; assay: Flow cytometry of anti-FZD5 Fab binding to CHO cells not expressing Frizzled CRD (background)
Excerpt: (§2) The binding of anti-FZD5 Fabs to cell surface-expressed Frizzled protein was further determined for each member of the Frizzled family via flow cytometry and immunofluorescence analysis of a panel of 10 CHO cell lines, each ectopically over-expressing the extracellular cysteine-rich domain (CRD) of a different Frizzled protein family member.

[6] = molecular target: T1, FZD6 CRD (Homo sapiens, UniProt O60353); assay: Immunofluorescence of anti-FZD5 Fab binding to CHO cells overexpressing Frizzled CRD; parameters: key: −: no binding; +: very weak binder; ++: weak binder; +++: good binder; ++++: very good binder
T1 construct: S20-P146; GPI anchor signal (C); expressed in transfected cells; host or cells: CHO cells, lentiviral pLenti-puro
T1 sequence (O60353 20-146): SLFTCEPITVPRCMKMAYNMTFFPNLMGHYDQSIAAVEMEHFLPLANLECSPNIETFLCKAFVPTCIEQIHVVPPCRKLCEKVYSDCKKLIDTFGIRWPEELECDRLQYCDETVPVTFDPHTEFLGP
Method: (§3) Plasmids: pLCKO lentiviral vector used for knockout (TKO) library construction and expression of individual gRNAs was constructed as described previously (Hart et al., 2015). Briefly, single guide RNA (sgRNA) scaffold was amplified from px330 (Addgene 42230) and cloned into pLKO.TRC005 lentiviral vector (Broad Institute, Cambridge, Mass.) using AgeI/EcoRI restriction sites. BfuAI sites were added at the 5′ end of the sgRNA scaffold for cloning the TKO library or individual gRNA target sequences. Lenti Cas9-2A-BsdR vector used to generate Cas9 stable expression cell lines was constructed as described previously (Hart et al., 2015). Briefly, lentiCRISPR pXPR_001 (Addgene 49535) was modified through removal of the sgRNA scaffold region through NdeI/EcoRI digest and blunt ends generation using Large Klenow Fragment (NEB). 2A-puro was replaced with 2A-BsdR by PCR using the NheI/MluI sites. Each of the 10 human Frizzled cysteine rich domains (CRDs) were cloned into the lentiviral expression plasmid pLenti-puro in the following cassette: FZD_CRD-MYC-GPI.
(§4) To confirm that the FZD5-WNT7B circuit is not driven simply by expression and rule out the possibility of a disconnect between RNA and protein levels for the Wnt receptors in HPAF-II cells, a panel of recombinant Fabs were generated, alternatively referred to herein as ‘Frizzled profiler’, that can detect and discriminate all but one of the ten Frizzled receptors. […] To characterize the binding specificity of these Fabs on cells, a panel of 10 CHO cell lines was generated, each expressing the CRD domain of a different myc-tagged Frizzled family member anchored at the plasma membrane through a GPI anchor (CHO-myc-FZDGPI). Despite the high sequence identity between Frizzled family members (FIG. 7A, FIG. 7B), selective Fabs were identified for FZD4, FZD5, FZD6 and FZD10 as assessed by immunofluorescence and flow cytometry (FIG. 7D and FIG. 8). […] The FZD8 CRD is most homologous to that of FZD5 (FIG. 7B). These Fabs can be used to discriminate expression of FZD1, FZD2, FZD4, FZD5, FZD6, FZD7, FZD8, FZD9 and FZD10 (FIG. 7D and FIG. 8). The ‘Frizzled profiler’ therefore consists of 10 different Fabs that can be used to discriminate expression of 9 different Frizzled family members. The Frizzled profiler was then used to confirm that HPAF-II cells express FZD1, FZD5, FZD6 and possibly FZD8 (FIG. 7E).
as §2

[7] = molecular target: T2, FZD8 CRD (Homo sapiens, UniProt Q9H461); assay: as above; parameters: key: −: no binding; +: very weak binder; ++: weak binder; +++: good binder; ++++: very good binder
T2 construct: K31-D155; GPI anchor signal (C); expressed in transfected cells; host or cells: CHO cells, lentiviral pLenti-puro
T2 sequence (Q9H461 31-155): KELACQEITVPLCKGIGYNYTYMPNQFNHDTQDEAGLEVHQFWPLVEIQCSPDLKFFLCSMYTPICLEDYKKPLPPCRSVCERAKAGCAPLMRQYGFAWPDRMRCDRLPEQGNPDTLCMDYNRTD
Method: as §3, §4, §2

[8] = molecular target: T3, FZD7 CRD (Homo sapiens, UniProt O75084); assay: as above; parameters: key: −: no binding; +: very weak binder; ++: weak binder; +++: good binder; ++++: very good binder
T3 construct: D45-S169; GPI anchor signal (C); expressed in transfected cells; host or cells: CHO cells, lentiviral pLenti-puro
Method: as §3, §4, §2

[9] = molecular target: T4, FZD5 CRD (Homo sapiens, UniProt Q13467); assay: as above; parameters: key: −: no binding; +: very weak binder; ++: weak binder; +++: good binder; ++++: very good binder
T4 construct: K29-T156; GPI anchor signal (C); expressed in transfected cells; host or cells: CHO cells, lentiviral pLenti-puro
T4 sequence (Q13467 29-156): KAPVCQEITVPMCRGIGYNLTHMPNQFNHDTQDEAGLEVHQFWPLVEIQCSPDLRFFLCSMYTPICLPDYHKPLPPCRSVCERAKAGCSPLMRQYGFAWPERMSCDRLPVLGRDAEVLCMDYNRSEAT
Method: as §3, §4, §2

[10] = molecular target: T5, FZD2 CRD (Homo sapiens, UniProt Q14332); assay: as above; parameters: key: −: no binding; +: very weak binder; ++: weak binder; +++: good binder; ++++: very good binder
T5 construct: D35-P161; GPI anchor signal (C); expressed in transfected cells; host or cells: CHO cells, lentiviral pLenti-puro
Method: as §3, §4, §2

[11] = tested on: RWP1 cells; assay: Effect of anti-FZD5 Fabs on proliferation of pancreatic cancer cell lines (percent growth inhibition); type: cell-based, human; conditions: Fab 2 μg/ml
[12] = tested on: ASPC-1 cells; assay: as above; type: cell-based, human; conditions: Fab 2 μg/ml
[13] = tested on: PATU8988S cells; assay: as above; type: cell-based, human; conditions: Fab 2 μg/ml

Molecule	percent growth inhibition, ASPC-1 10 μg/ml [1] [%]	percent growth inhibition, HPAFII 2 μg/ml [2] [%]	percent growth inhibition, HPAFII 10 μg/ml [2] [%]	percent growth inhibition, RWP1 10 μg/ml [3] [%]	percent growth inhibition, PATU8988s 10 μg/ml [4] [%]	Median fluorescence, Frizzled CRD overexpressed on CHO cells: None [5]	Immunofluorescence binding, Frizzled CRD overexpressed on CHO cells: FZD6 [6]	Immunofluorescence binding, Frizzled CRD overexpressed on CHO cells: FZD8 [7]	Immunofluorescence binding, Frizzled CRD overexpressed on CHO cells: FZD7 [8]	Immunofluorescence binding, Frizzled CRD overexpressed on CHO cells: FZD5 [9]	Immunofluorescence binding, Frizzled CRD overexpressed on CHO cells: FZD2 [10]	percent growth inhibition, RWP1 2 μg/ml [11] [%]	percent growth inhibition, ASPC-1 2 μg/ml [12] [%]	percent growth inhibition, PATU8988s 2 μg/ml [13] [%]
Fab-2898: anti-FZD5 Fab with antibody variable region Fv-2898; CDR SEQ ID NOs: 35, 36, 37, 76, 113, 152 (antibody, V domains shown) VH: EVQLVESGGGLVQPGGSLRLSCAASGFNIYSYSMHWVRQAPGKGLEWVASIYSSSGSTSYADSVKGRFTISADTSKNTAYLQMNSLRAEDTAVYYCARAVWGLDYWGQGTLVTVSS VL: DIQMTQSPSSLSASVGDRVTITCRASQSVSSAVAWYQQKPGKAPKLLIYSASSLYSGVPSRFSGSRSGTDFTLTISSLQPEDFATYYCQQWWGYYSLITFGQGTKVEIK	25.15	15.80	21.87	26.93	0.97	5.38	−	+	+++	+++	+++	21.46	11.14	4.53
Fab-2899: anti-FZD5 Fab with antibody variable region Fv-2899; CDR SEQ ID NOs: 35, 36, 38, 77, 114, 153 (antibody, V domains shown) VH: EVQLVESGGGLVQPGGSLRLSCAASGFNLYYYYMHWVRQAPGKGLEWVASIYPSSGSTSYADSVKGRFTISADTSKNTAYLQMNSLRAEDTAVYYCARGALDYWGQGTLVTVSS VL: DIQMTQSPSSLSASVGDRVTITCRASQSVSSAVAWYQQKPGKAPKLLIYSASSLYSGVPSRFSGSRSGTDFTLTISSLQPEDFATYYCQQWYSSYGLITFGQGTKVEIK	33.63	36.18	55.71	47.83	−3.10	4.91	−	+	+++	+++	+++	37.95	37.97	4.94
Fab-2900: anti-FZD5 Fab with antibody variable region Fv-2900; CDR SEQ ID NOs: 35, 36, 39, 78, 115, 153 (antibody, V domains shown) VH: EVQLVESGGGLVQPGGSLRLSCAASGFNLSSYYIHWVRQAPGKGLEWVASISSSSSSTSYADSVKGRFTISADTSKNTAYLQMNSLRAEDTAVYYCARGALDYWGQGTLVTVSS VL: DIQMTQSPSSLSASVGDRVTITCRASQSVSSAVAWYQQKPGKAPKLLIYSASSLYSGVPSRFSGSRSGTDFTLTISSLQPEDFATYYCQQWYSGSSLFTFGQGTKVEIK	−1.26	3.34	3.46	−29.81	−51.41	3.4	−	+	+	++++	−	−28.30	−13.30	−29.28
Fab-2901: anti-FZD5 Fab with antibody variable region Fv-2901; CDR SEQ ID NOs: 35, 36, 40, 79, 116, 154 (antibody, V domains shown) VH: EVQLVESGGGLVQPGGSLRLSCAASGFNISYSYMHWVRQAPGKGLEWVASIYSYSSYTYYADSVKGRFTISADTSKNTAYLQMNSLRAEDTAVYYCARSWYYWSPSSGMDYWGQGTLVTVSS VL: DIQMTQSPSSLSASVGDRVTITCRASQSVSSAVAWYQQKPGKAPKLLIYSASSLYSGVPSRFSGSRSGTDFTLTISSLQPEDFATYYCQQGGFLITFGQGTKVEIK	11.26	6.38	12.31	21.10	−6.65	3.75	−	+	+	++++	−	−19.95	−8.27	−9.37
